Assays:
TDP-43 full-length [1] = biological target: T1, TDP-43 full-length (UniProt Q13148 1-414); assay: EMSA; EMSA: 10 mM HEPES pH 8.0, 50 mM KCl, 1 mM EDTA, 5% glycerol, 1 mM DTT, 40 U/ml RNase inhibitor, 4 C, 1 h; 20 fmol probe in 20 ul; 8% native PAGE; settings: protein: recombinant, tags: MBP-6xHis (C-terminal as named TDP-43-MBP-6xHis)
TDP-43-RRM = TDP-43-RRM (UniProt Q13148 104-262); assay: as above; settings: protein: recombinant
TDP-43 full-length [2] = biological target: T1, TDP-43 full-length; assay: EMSA; separate experiment run beside 5FL; differs from 70 nM in 3d,e; EMSA: 10 mM HEPES pH 8.0, 50 mM KCl, 1 mM EDTA, 5% glycerol, 1 mM DTT, 40 U/ml RNase inhibitor, 4 C, 1 h; 20 fmol probe in 20 ul; 8% native PAGE; settings: protein: recombinant; tags: MBP-6xHis (C-terminal as named TDP-43-MBP-6xHis); label: 5'-32P

Chain of TDP-43-RRM (Q13148 104-262): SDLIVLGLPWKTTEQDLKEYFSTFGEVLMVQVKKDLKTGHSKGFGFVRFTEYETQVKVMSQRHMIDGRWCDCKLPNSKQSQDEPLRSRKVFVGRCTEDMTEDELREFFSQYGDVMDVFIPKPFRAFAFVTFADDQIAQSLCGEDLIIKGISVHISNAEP
T1 sequence (Q13148 whole entry): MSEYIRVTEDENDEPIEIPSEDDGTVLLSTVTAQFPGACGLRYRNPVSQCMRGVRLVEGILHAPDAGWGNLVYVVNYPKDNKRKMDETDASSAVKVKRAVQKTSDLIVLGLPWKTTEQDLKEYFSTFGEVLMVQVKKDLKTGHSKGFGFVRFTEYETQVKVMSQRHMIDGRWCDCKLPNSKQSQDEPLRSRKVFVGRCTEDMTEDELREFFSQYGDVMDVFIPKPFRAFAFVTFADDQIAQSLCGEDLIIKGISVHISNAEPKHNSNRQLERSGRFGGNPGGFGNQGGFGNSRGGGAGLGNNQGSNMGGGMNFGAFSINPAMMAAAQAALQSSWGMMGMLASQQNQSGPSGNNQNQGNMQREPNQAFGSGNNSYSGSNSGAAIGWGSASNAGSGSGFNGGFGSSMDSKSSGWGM

Binder | Kd (TDP-43 full-length [1]; label: 5'-biotin, 3'-32P pCp) [nM] | Kd (TDP-43-RRM; label: 5'-biotin, 3'-32P pCp) [nM] | Kd (TDP-43 full-length [1]; label: 5'-32P) [nM] | Kd (TDP-43-RRM; label: 5'-32P) [nM] | Kd (TDP-43 full-length [2]) [nM]
CCGUUCCGCCCAGGCCGCGCCCAGCUGGAAUGCA (ssRNA) [Control RNA probe (rA)] | 38 | 73 |  |  | 
CCGUUCCGCCCAGGCCGCGCCCAGCUGGAAUGCA (ssRNA, m6A at position 12) [m6A RNA probe] | 46 | 81 |  |  | 
CCGUUCCGCCCAGGCCGCGCCCAGCUGGAAUGCA (ssRNA, m1A at position 12) [m1A RNA probe] | 18 | 31 |  |  | 
CAGCAGCAGCAGCAGCAGCAG (ssRNA) [(CAG)7-0m1A] |  |  | 146 | 380 | 
CAGCAGCAGCAGCAGCAGCAG (ssRNA, m1A at position 11) [(CAG)7-1m1A] |  |  | 70 | 180 | 13.1

— publication PMC10651481, “m1A in CAG repeat RNA binds to TDP-43 and induces neurodegeneration”
